Data published in patent publication US20240293465A1.

B1: bovine FXa (activated bovine clotting factor X) (protein)
chain: ANSFLEEVKQGNLERECLEEACSLEEAREVFEDAEQTDEFWSKYKDGDQCEGHPCLNQGHCKDGIGDYTCTCAEGFEGKNCEFSTREICSLDNGGCDQFCREERSEVRCSCAHGYVLGDDSKSCVSTERFPCGKFTQGRSRRWAIHTSEDALDASELEHYDPADLSPTESSLDLLGLNRTEPSAGEDGSQVVRIVGGRDCAEGECPWQALLVNEENEGFCGGTILNEFYVLTAAHCLHQAKRFTVRVGDRNTEQEEGNEMAHEVEMTVKHSRFVKETYDFDIAVLRLKTPIRFRRNVAPACLPEKDWAEATLMTQKTGIVSGFGRTHEKGRLSSTLKMLEVPYVDRSTCKLSSSFTITPNMFCAGYDTQPEDACQGDSGGPHVTRFKDTYFVTGIVSWGEGCARKGKFGVYTKVSNFLKWIDKIMKARAGAAGSRGHSEAPATWTVPPPLPL

Legend:
human C3 = human C3 (UniProt P01024)

human C3, P01024, sequence (P01024 whole entry, looked up): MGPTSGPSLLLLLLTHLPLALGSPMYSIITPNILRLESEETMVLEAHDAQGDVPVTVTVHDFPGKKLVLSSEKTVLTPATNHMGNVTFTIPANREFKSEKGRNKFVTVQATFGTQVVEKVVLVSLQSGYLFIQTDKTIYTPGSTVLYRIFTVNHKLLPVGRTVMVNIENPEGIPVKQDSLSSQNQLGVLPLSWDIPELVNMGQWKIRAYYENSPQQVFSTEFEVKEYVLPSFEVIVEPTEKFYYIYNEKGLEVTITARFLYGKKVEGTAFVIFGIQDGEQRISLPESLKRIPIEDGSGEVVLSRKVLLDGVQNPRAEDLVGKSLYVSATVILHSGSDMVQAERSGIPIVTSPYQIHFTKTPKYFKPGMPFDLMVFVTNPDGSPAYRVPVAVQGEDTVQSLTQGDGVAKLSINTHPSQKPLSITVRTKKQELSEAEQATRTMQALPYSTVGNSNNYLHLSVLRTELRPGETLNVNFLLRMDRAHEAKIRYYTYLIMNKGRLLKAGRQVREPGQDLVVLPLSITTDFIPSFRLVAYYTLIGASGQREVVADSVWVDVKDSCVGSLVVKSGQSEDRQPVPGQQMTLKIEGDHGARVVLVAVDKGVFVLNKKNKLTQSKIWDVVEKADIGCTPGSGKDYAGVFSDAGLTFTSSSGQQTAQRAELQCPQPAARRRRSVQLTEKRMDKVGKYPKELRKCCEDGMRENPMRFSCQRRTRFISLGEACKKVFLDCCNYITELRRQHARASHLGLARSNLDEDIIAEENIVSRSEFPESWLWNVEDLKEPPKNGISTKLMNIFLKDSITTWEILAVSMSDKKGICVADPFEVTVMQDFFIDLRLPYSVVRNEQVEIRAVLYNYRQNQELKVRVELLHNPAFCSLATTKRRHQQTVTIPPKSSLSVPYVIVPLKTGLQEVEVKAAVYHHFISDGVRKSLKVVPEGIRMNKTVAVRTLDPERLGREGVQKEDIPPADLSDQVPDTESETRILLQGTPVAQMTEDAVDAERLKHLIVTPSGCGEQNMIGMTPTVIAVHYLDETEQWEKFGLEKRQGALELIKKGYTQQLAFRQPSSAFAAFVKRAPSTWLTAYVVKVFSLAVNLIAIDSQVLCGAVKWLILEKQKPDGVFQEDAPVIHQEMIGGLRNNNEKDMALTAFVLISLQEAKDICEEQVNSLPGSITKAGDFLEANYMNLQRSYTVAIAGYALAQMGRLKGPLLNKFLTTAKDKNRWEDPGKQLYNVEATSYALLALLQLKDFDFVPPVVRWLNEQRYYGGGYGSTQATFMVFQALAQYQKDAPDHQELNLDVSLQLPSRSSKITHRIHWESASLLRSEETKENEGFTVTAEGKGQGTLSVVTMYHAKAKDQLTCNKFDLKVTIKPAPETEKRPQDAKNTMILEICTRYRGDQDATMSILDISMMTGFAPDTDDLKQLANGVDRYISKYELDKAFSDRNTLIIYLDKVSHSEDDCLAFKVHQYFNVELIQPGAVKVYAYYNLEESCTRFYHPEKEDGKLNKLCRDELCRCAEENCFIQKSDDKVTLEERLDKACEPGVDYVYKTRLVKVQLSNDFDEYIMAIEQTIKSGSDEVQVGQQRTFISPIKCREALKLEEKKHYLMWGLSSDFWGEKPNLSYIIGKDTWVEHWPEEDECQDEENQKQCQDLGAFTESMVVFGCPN

Molecule | cleavage of the C3 alpha chain to the a' chain (Western blot) (human C3) | cleavage of the C3 alpha chain to the a' chain (Western blot) (human C3, P01024)
human FXa (activated form of human clotting factor X) | can cleave C3 in vitro in the absence of any complement proteases | –
human FCXIa (activated form of human clotting factor XI) | can cleave C3 in vitro in the absence of any complement proteases | –
B1 | – | can cleave C3 in vitro in the absence of any complement proteases
